Experimental data reported in patent US8632989B1, “Mutant insulin degrading enzyme and methods of use” (University of Kentucky Research Foundation, priority 2011, dated 2014).
Substitutions are numbered along the chain they refer to. In names and notes the source's numbering stands.

B1: IDE^R429S: Rat IDE residues 41-1019 bearing the mutation R429S; ATP binding site mutant (protein, listed as Rattus norvegicus)
chain: MRNGLVWLLHPALPSTLHSILGARPPPVKRLCGFPKQIYSTMNNPAIQRIEDHIVKSPEDKREYRGLELANGIKVLLISDPTTDKSSAALDVHIGSLSDPPNIPGLSHFCEHMLFLGTKKYPKENEYSQFLSEHAGSSNAFTSGEHTNYYFDVSHEHLEGALDRFAQFFLCPLFDASCKDREVNAVDSEHEKNVMNDAWRLFQLEKATGNPKHPFSKFGTGNKYTLETRPNQEGIDVREELLKFHSTYYSSNLMAICVLGRESLDDLTNLVVKLFSEVENKNVPLPEFPEHPFQEEHLKQLYKIVPIKDIRNLYVTFPIPDLQQYYKSNPGHYLGHLIGHEGPGSLLSELKSKGWVNTLVGGQKEGARGFMFFIINVDLTEEGLLHVEDIILHMFQYIQKLRAEGPQEWVFQECKDLNAVAFRFKDKESPRGYTSKIAGKLHYYPLNGVLTAEYLLEEFRPDLIDMVLDKLRPENVRVAIVSKSFEGKTDRTEQWYGTQYKQEAIPEDVIQKWQNADLNGKFKLPTKNEFIPTNFEILALEKDATPYPALIKDTAMSKLWFKQDDKFFLPKACLNFEFFSPFAYVDPLHCNMAYLYLELLKDSLNEYAYAAELAGLSYDLQNTIYGMYLSVKGYNDKQPILLKKITEKMATFEIDKKRFEIIKEAYMRSLNNFRAEQPHQHAMYYLRLLMTEVAWTKDELKEALDDVTLPRLKAFIPQLLSRLHIEALLHGNITKQAALGVMQMVEDTLIEHAHTKPLLPSQLVRYREVQLPDRGWFVYQRRNEVHNNCGIEIYYQTDMQSTSENMFLELFCQIISEPCFNTLRTKEQLGYIVFSGPRRANGIQGLRFIIQSEKPPHYLESRVEAFLITMEKAIEDMTEEAFQKHIQALAIRRLDKPKKLSAECAKYWGEIISQQYNYDRDNIEVAYLKTLSKDDIIKFYKEMLAVDAPRRHKVSVHVLAREMDSCPVVGEFPSQNDINLSEAPPLPQPEVIHNMTEFKRGLPLFPLVKPHINFMAAKL
modifications: wild-type Insulin Degrading Enzyme (IDE) from rat
B2: Y609F: Rat IDE distal site mutant Y609F (protein, UniProt P35559 1-1019, looked up, variant Y609F)
Insulin-degrading enzyme: B1 chain with S429R, Y609F
B3: I374S: Rat IDE distal site mutant I374S (protein, UniProt P35559 1-1019, looked up, variant I374S)
Insulin-degrading enzyme: B1 chain with I374S, S429R
B4: V360S: Rat IDE distal site mutant V360S (protein, UniProt P35559 1-1019, looked up, variant V360S)
Insulin-degrading enzyme: B1 chain with V360S, S429R

Legend:
[1] = TNP-ATP fluorescence measurements, IDE and ATP binding site mutants; conditions: 1.5 μM enzyme, 10 μM TNP-ATP, λexc=403 nm
Method: Fluorescence emission spectra were recorded on a Perkin-Elmer LS 55 Luminescence spectrometer with 1.5 μM of IDE, IDE^R429S or IDE^K898A,K899A,S901A in 50 mM Tris-HCl, pH 7.4 with 10 μM TNP-ATP. Fluorescence spectra were recorded with a λexc=403 nm.
TNP-ATP [2′,3′-O-(2,4,6-Trinitrophenyl)adenosine-5′-triphosphate] fluorescence was monitored at excitation and emission wavelengths of 403 nm and 547 nm, respectively, using a Perkin-Elmer LS55 Luminescence Spectrometer at 20±0.1° C. TNP-ATP (Molecular Probes, Inc.) as supplied was diluted to 4 mM with 50 mM Tris-HCl, pH 7.4, and added to achieve the indicated concentrations.

Abz-GGFLRKHGQ-EDDnp [2] = experiment: Enzyme activity assay, kinetics of IDE and ATP binding site mutants with fluorogenic substrate; type: biochemical; conditions: Abz-GGFLRKHGQ-EDDnp as substrate
Method: Reactions were conducted in 50 mM Tris-HCl, pH 7.4.
(§1) IDE activity was determined by measuring the increase in fluorescence that occurs when the enzyme cleaves the internally quenched fluorogenic substrate Abz-[…]-EDDnp (SEQ ID NO:3) at the R—K bond (Song et al., Journal of Biologial Chemistry 276, 1152-1155 (2001)). The reaction was followed on a SpectraMax Gemini XS fluorescence plate reader using an excitation and emission wavelengths of 318 nm and 419 nm, respectively. Initial velocities were determined using SoftMax Pro 4.0 and kinetic constants calculated using GraphPad Prism 4.0. ATPase activity was measured by following Pi release with acid-molybdate as described by Harder et al. (Harder et al., Biochemical Journal 298 (Pt 2), 395-401 (1994)).

Abz-GGFLRKHGQ-EDDnp [3] = experiment: Activation by ATP of Abz-[…]-EDDnp hydrolysis, IDE and ATP binding site mutants; type: biochemical; conditions: 10 μM Abz-GGFLRKHGQ-EDDnp as substrate
Method: Activity was determined in 50 mM Tris-HCl, pH 7.4 with 10 μM Abz-[…]-EDDnp (SEQ ID NO:3) as substrate at the indicated concentrations of ATP (panel A), PPPi (panel B) or, TNP-ATP (panel C). Each reaction contained 0.5 μg of enzyme.
as §1

Abz-GGFLRKHGQ-EDDnp [4] = experiment: Enzyme activity assay, kinetics of wild type rIDE and distal site mutants with fluorogenic substrate; type: biochemical; conditions: rat IDE, Abz-GGFLRKHGQ-EDDnp as substrate; for Vmax: 50 mM Tris-HCl, pH 7.4
Method: (§2) FIG. 17. Effects of distal site mutations. (A) Comparison of the kinetics of wild type IDE with the distal site mutants. Activity was measured with varying amounts of Abz-[…]-EDDnp (SEQ ID NO:3) substrate as indicated. Either hyperbolic (Michaelis-Menten equation) or sigmoidal curves (Hill equation) were fit to the data. (B) Effect of bradykinin on the activity of wild type IDE and the distal site mutants. (C) Activation of wild type IDE and distal site mutants by ATP. Relative activity is the fold activation above the level of the wild type enzyme alone.
(§3) The activity of IDE was measured by following the increase in fluorescence upon hydrolysis at the L-R bond of the fluorogenic peptide Abz-[…]-EDDnp (SEQ ID NO:3) on a SpectraMax Gemini XS fluorescence plate reader using an excitation wavelength of 318 nm and emission wavelength of 419 nm. Reactions were carried out in 200 μl volumes containing 50 mM Tris-HCl, pH 7.4, 1.92 μg of wild type rIDE, 4.6 μg of rIDE-V360S, 4.3 μg rIDE-I374S, or 1.63 μg of rIDE-Y609F. For measurements of activation by bradykinin, IDE activity was determined with 10 μM Abz-[…]-EDDnp (SEQ ID NO:3) as substrate in 50 mM Tris-HCl buffer, pH 7.4. The amount of protein was 0.5 μg for wild type rIDE and 5 μg for each of the IDE distal-site mutants. Data were analyzed using Softmax 4.0 (Molecular Devices) and kinetic parameters calculated with Prism (Graphpad Software). […] Under these assay conditions, both wild type and mutant rIDE are almost completely dimeric.

Abz-GGFLRKHGQ-EDDnp [5] = experiment: Activation by ATP, wild type rIDE and distal site mutants; type: biochemical; conditions: 10 μM Abz-GGFLRKHGQ-EDDnp as substrate
Method: as §2, §3
Fluorescence measurements of TNP-ATP binding were performed on a Perkin-Elmer LS55 Luminescence Spectrometer. Titrations were monitored at an excitation wavelength of 403 nm and emission wavelength of 547 nm. The temperature of the sample was maintained at 20±0.1° C. by circulating thermostatically controlled water through the cuvette holder. […] The fluorescence of TNP-ATP was subtracted from the total fluorescence of enzyme+TNP-ATP to yield specific fluorescence enhancement (ΔF).

[6] = Fluorescence measurements of TNP-ATP binding, wild type rIDE and distal site mutants; conditions: hyperbolic one site binding fit, 20 °C
Method: The fluorescence increase on binding of (2,4,6-trinitrophenyl)ATP (TNP-ATP) is plotted for the indicated IDE constructs as a function of ligand concentration. Data were fit to a hyperbolic one site binding mechanism.
Fluorescence emission spectra of 10 μM TNP-ATP in […] Tris-HCl, pH7.4, was measured in the presence of 1.5 μM of each wild type IDE and the indicated IDE distal mutants. Fluorescence spectra were recorded with a λexc=403 nm on a Perkin-Elmer LS55 Luminescence Spectrometer.
Fluorescence measurements of TNP-ATP binding were performed on a Perkin-Elmer LS55 Luminescence Spectrometer. Titrations were monitored at an excitation wavelength of 403 nm and emission wavelength of 547 nm. The temperature of the sample was maintained at 20±0.1° C. by circulating thermostatically controlled water through the cuvette holder. Assays were conducted in 200 μL reaction mixtures containing 50 mM Tris-HCl, pH, 7.4, 10 μM Abz-[…]-EDDnp (SEQ ID NO:3) as substrate, and 0.5 μg wild type rIDE, 2.3 μg rIDE-V3605, 2.0 μg rIDE-I3745 or 1.62 μg rIDEY609F and the indicated concentration of ATP. The fluorescence of TNP-ATP was subtracted from the total fluorescence of enzyme+TNP-ATP to yield specific fluorescence enhancement (ΔF).

Molecule	fluorescence associated with TNP-ATP binding, relative to wild type IDE [1]	kcat relative to wild-type IDE (Abz-GGFLRKHGQ-EDDnp [2])	Hill coefficient (Abz-GGFLRKHGQ-EDDnp [2]; rat IDE)	Km (Abz-GGFLRKHGQ-EDDnp [2]; rat IDE)	kcat (Abz-GGFLRKHGQ-EDDnp [2]; rat IDE)	Vmax (Abz-GGFLRKHGQ-EDDnp [2]; rat IDE, 50 mM Tris-HCl, pH 7.4)	level of activation by ATP, of the wild type value (Abz-GGFLRKHGQ-EDDnp [3])	Hill coefficient (Abz-GGFLRKHGQ-EDDnp [4])	Km (Abz-GGFLRKHGQ-EDDnp [4])	Vmax (Abz-GGFLRKHGQ-EDDnp [4])	Hill coefficient (Abz-GGFLRKHGQ-EDDnp [4]; listed as Tyr609Phe)	ATP activation (Abz-GGFLRKHGQ-EDDnp [5])	Kd [6]	Hill coefficient (Abz-GGFLRKHGQ-EDDnp [4]; listed as Ile374Ser)	Hill coefficient (Abz-GGFLRKHGQ-EDDnp [4]; listed as Val360Ser)
B1	lower fluorescent yield	essentially the same	1.7 ± 0.2	21300 ± 2400 µM	0.0783 ± 0.005 s⁻¹	42.3 ± 3.2 nmol/min/mg	about 15%								
B2								1.04	6.86 ± 1.18 µM	2.6 ± 0.56 nmol/min/mg	1.04 ± 0.14	not significant	2000 ± 300 nM		
B3								1.12	8.5 ± 1.74 µM	3.45 ± 0.22 nmol/min/mg		not significant	2100 ± 500 nM	1.12 ± 0.2	
B4								1.07	8.61 ± 0.81 µM	2.01 ± 0.08 nmol/min/mg		8 fold	3700 ± 800 nM		1.07 ± 0.30
